Assay results from patent publication US20090136936A1.

What follows are substances tested against PA-FITC (PA antigen of Bacillus anthracis) (Bacillus anthracis) (UniProt P13423).
Sequence of PA-FITC (PA antigen of Bacillus anthracis) (Bacillus anthracis) (P13423 30-764 limits assumed): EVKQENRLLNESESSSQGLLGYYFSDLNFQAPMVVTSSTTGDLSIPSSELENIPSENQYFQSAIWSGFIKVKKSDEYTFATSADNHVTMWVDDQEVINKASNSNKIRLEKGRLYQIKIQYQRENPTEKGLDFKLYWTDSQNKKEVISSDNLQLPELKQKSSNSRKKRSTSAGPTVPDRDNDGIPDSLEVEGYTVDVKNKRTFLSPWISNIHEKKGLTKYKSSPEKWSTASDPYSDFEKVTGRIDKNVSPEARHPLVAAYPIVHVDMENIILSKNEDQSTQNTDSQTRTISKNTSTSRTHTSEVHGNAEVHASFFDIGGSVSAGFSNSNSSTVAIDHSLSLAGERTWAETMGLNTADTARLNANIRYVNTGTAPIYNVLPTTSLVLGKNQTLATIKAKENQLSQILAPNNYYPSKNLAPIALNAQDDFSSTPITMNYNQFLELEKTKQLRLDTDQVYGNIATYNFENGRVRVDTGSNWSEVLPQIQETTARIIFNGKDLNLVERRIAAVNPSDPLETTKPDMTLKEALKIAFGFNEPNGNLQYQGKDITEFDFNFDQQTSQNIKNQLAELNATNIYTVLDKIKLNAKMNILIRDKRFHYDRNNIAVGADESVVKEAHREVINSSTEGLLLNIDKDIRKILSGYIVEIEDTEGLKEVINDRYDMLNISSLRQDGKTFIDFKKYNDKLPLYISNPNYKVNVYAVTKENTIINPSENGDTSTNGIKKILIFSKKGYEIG
M18 scFv (PelB fused, anti-PA) showed a Mn (mean fluorescence intensity) of 10.3. For PelB-M18scFv-Im2-FLAG, the Mn (mean fluorescence intensity) was 249. Work on 26-10 scFv (anti-digoxin) yielded a Mn (mean fluorescence intensity) of 8.49. PelB-2610scFv-Im2-FLAG gave a Mn (mean fluorescence intensity) of 9.12.
